For assay [1], the target named is Human Respiratory Syncytial Virus Matrix (M) protein, GAL4 fusion (Human Respiratory Syncytial Virus) (UniProt P0DOE7). Kind of assay: two-hybrid.
Assay [2] deals with Adaptor protein complex 3 medium subunit (AP-3Mu3A), GAL4 fusion (human (HeLa cDNA library)) (UniProt Q9Y2T2). Kind of assay: two-hybrid.

Beta-Galactosidase activity data for two molecules are collected here from paper PMC5640227.

Chain of UniProt Q9Y2T2 (Q9Y2T2 whole entry, the tested form may be a part, one chain of several): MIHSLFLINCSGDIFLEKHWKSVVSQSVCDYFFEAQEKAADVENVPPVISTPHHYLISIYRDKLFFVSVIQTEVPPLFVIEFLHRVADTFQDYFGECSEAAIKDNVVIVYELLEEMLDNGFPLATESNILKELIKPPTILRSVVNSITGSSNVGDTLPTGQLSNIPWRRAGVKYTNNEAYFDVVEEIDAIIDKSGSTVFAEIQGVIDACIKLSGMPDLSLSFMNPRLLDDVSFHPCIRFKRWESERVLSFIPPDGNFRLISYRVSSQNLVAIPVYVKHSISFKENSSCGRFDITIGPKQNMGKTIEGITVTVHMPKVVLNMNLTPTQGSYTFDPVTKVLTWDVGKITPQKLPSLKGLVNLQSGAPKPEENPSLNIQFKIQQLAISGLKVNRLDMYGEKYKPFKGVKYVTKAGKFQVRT

Regarding “Adaptor protein complex 3 medium subunit (AP-3Mu3A), GAL4 fusion (from UniProt Q9Y2T2 1-418) (natural protein)”, the beta-Galactosidase activity in assay [1] turned out to be 458 units.

B1: Human Respiratory Syncytial Virus Matrix (M) protein, GAL4 fusion (natural protein)
chain: METYVNKLHEGSTYTAAVQYNVLEKDDDPASLTIWVPMFQSSMPADLLIKELANVNILVKQISTPKGPSLRVMINSRSAVLAQMPSKFTICANVSLDERSKLAYDVTTPCEIKACSLTCLKSKNMLTTVKDLTMKTLNPTHDIIALCEFENIVTSKKVIIPTYLRSISVRNKDLNTLENITTTEFKNAITNAKIIPYSGLLLVITVTDNKGAFKYIKPQSQFIVDLGAYLEKESIYYVTTNWKHTATRFAIKPMED
In the case of B1, in assay [2], the beta-Galactosidase activity amounted to 420 units.
